Results reported in the supplement of paper PMC10201428.
± gives the standard deviation of the averaged measurements.

Columns and labels:
[1] = test system: VchCAST RNA-guided transposition machinery (E. coli BL21(DE3) host, lacZ target); assay: relative integration efficiency (T-RL orientation) vs wild-type transposon end (log2 (normalized fold change)); transposon end mutated: left end; higher = more efficient transposition
How it was run: (§1)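 Barcode abundances in input plasmids and in genomic integration junctions were obtained by PCR amplification and Illumina sequencing. These came from E. coli BL21(DE3) co-transformed with a T7-driven effector plasmid and a pUC57 donor carrying 1549 left-end or 1849 right-end transposon variants, then plated with 0.1 mM IPTG at 37°C for 18 h. Relative integration efficiency is the output/input fold change, normalised to reference barcodes and log-transformed.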

[2] = test system: VchCAST RNA-guided transposition machinery (E. coli BL21(DE3) host, lacZ target); assay: relative integration efficiency (T-LR orientation) vs wild-type transposon end (log2 (normalized fold change)); transposon end mutated: left end; higher = more efficient transposition
How it was run: as §1

Sequence: AATGTTGTTGATGCAACCATAAAGTGATATTTAATAATTATTTATAATCAGCAACTTAACCACAACAACCATATATTGATATCTCACAAAACAACCATAAGTTGATATTTTTGTGAATCGAGTATTTCAGCAAAACTACTGCAGTAAGAAAG
- relative integration efficiency (log2) [1]: -2.31 ± 0.76
- relative integration efficiency (log2) [2]: -2.53 ± 1.4

Sequence: AATGTTGTTGATGCAACCATAAAGTGATATTTCCGCCGGCGGGCGCCGACTACCAGGCCAACACCCCACCAACGCGCGGTCGCGAGACACCCCACCAACGCCTGGTCGCGGGGGTGTCCGATCTGATTTCAGCAAAACTACTGCAGTAAGAA
- relative integration efficiency (log2) [1]: -6.65 ± 1.1
- relative integration efficiency (log2) [2]: -5 ± 1.2

Sequence: AATGTTGTTGATGCAACCATAAAGTGATATTTAATAATTATTTATAATCAGCAACTTAACCACAAAACAACCATATATTGATATCTCACAAAACAACCATAAGTGTCGCGGGGGTGTCCGATCTGATTTCAGCAAAACTACTGCAGTAAGAA
- relative integration efficiency (log2) [1]: -2.05 ± 0.76
- relative integration efficiency (log2) [2]: -1.82 ± 0.77

Sequence: AATGTTGTTGATGCAACCATAAAGTGATATTTAGACGTCCTTAACTCTGGCAGGGAGTTCAAGGGACCAACCATATATTGATATCTCACAAAACAACCATAAGTTGATATTTTTGTGAATCGAGTATTTCAGCAAAACTACTGCAGTAAGAA
- relative integration efficiency (log2) [1]: -2.69 ± 1.2
- relative integration efficiency (log2) [2]: -3.47 ± 2.7

Sequence: TTTTGTGTTGAAACAACCATAAAGTGATAACAACGAATCAATTAAAATCATAGGCTTAATCGAAAAACAACCATATATTGATATCTCATAAAACAACCATAAGTTGATATTTTGGTGAAAAGGATATTCCAACCTTCATAGTTTAGTAAGAA
- relative integration efficiency (log2) [1]: 0.184 ± 0.29
- relative integration efficiency (log2) [2]: 0.0938 ± 0.43

Sequence: AATGTTGTTGATGCAACCATAAAGTGATATTTAATAATTATTTATAATCAGCAACTTAACCACAAAACACAACGCGCGGTCGCGAGACACCCCACCAACGCCTGGTCGCGGGGGTGTCCGATCTGATTTCAGCAAAACTACTGCAGTAAGAA
- relative integration efficiency (log2) [1]: -6.99 ± 3
- relative integration efficiency (log2) [2]: -4.26 ± 0.12

Sequence: AATGTTGTTGATGCAACCATAAAGTGATATTTAATAATTATTTATAATCAGCAACTTAACCACAAAACAACCATATATTGATATCTCACAAAACCCAACGCCTGGTCGCGGGGGTGTCCGATCTGATTTCAGCAAAACTACTGCAGTAAGAA
- relative integration efficiency (log2) [1]: -2.31 ± 0.93
- relative integration efficiency (log2) [2]: -0.934 ± 0.6

Sequence: AATGTTGTTGATGCAACCATAAAGTGATATTGCCGCCGGCGGGCGCCGACTACCAGGCCAACACCCCACCAACGCGCGGTCGCGAGACACCCCACCAACGCCTGGTCGCGGGGGTGTCCGATCTGATTTCAGCAAAACTACTGCAGTAAGAA
- relative integration efficiency (log2) [1]: -7.14 ± 1.3
- relative integration efficiency (log2) [2]: -5.87 ± 0.86

Sequence: AATGTTGTTGATGCAACCATAAAGTGATATTTAATAATTATTTATAATCAGCAACTTAACCACAAAAACCAACGCGCGGTCGCGAGAACAAAACAACCATAAGTTGATATTTTTGTGAATCGAGTATTTCAGCAAAACTACTGCAGTAAGAA
- relative integration efficiency (log2) [1]: -3.6 ± 1.3
- relative integration efficiency (log2) [2]: -2.16 ± 0.37

Sequence: AATGTTGTTGATGCAACCATAAAGTGATATTTAATAATTATTTATAATCAGCAACTTAACCACAAAACAACCATATATTGATATCTCACAAAACAACCATAAGTTGCGCGGGGGTGTCCGATCTGATTTCAGCAAAACTACTGCAGTAAGAA
- relative integration efficiency (log2) [1]: -1.74 ± 0.81
- relative integration efficiency (log2) [2]: -3.15 ± 1.6

Sequence: AATGTTGTTGATGCAACCATAAAGTGATATTTAATAATTATTTATACAACCATATATTGATATCTCATCAGCAACTTAACCACAAAAACAAAACAACCATAAGTTGATATTTTTGTGAATCGAGTATTTCAGCAAAACTACTGCAGTAAGAA
- relative integration efficiency (log2) [1]: -4.35 ± 0.47
- relative integration efficiency (log2) [2]: -1.08 ± 0.46

Sequence: AATGTTGTTGATGCAACCATAAAGTGATATTTAAGCCGGCGGGCGCCGACTACCAGGCCAACACCCCACCAACGCGCGGTCGCGAGACACCCCACCAACGCCTGGTCGCGGGGGTGTCCGATCTGATTTCAGCAAAACTACTGCAGTAAGAA
- relative integration efficiency (log2) [1]: -6.95 ± 1.1
- relative integration efficiency (log2) [2]: -5.38 ± 1

Sequence: AATGTTGTTGATGCACCCATAAATTGATATTGCATAATTATTTATAATCAGCAACTTAACCACAAAACAACCATAAGTTGATATTTTACAAAAGTTGGTATTCAACTATAAAATGTGAATCGAGTATTTCAGCAAAACTACTGCAGTAAGAA
- relative integration efficiency (log2) [1]: -3.46 ± 1.6
- relative integration efficiency (log2) [2]: -1.34 ± 1.4

Sequence: AATGTTGTTGATGCAACCATAAAGTGATATTTAATAATTATTTATAATCAGCAACTTCAACCATATATTGATATCTCACAAAACAACCATAAGTTGATATTTTTGTGAATCGAGTATTTCAGCAAAACTACTGCAGTAAGAAAGTTACTTCG
- relative integration efficiency (log2) [1]: -1.06 ± 0.45
- relative integration efficiency (log2) [2]: -0.903 ± 0.24

Sequence: AATGTTGTTGATGCAACCATAAAGTGATATTTAATAATTATTTATAATCAGCAACTTAACAACCATATATTGATATCTCACAAAACAACCATAAGTTGATATTTTTGTGAATCGAGTATTTCAGCAAAACTACTGCAGTAAGAAAGTTACTT
- relative integration efficiency (log2) [1]: -3.63 ± 1.3
- relative integration efficiency (log2) [2]: -4.07 ± 1.9

Sequence: AATGTTGTTGATGCAACCATAAAGTGATATTTAATAATTCAACCATATATTGATATCTCATTTATAATCAGCAACTTAACCACAAAAACAAAACAACCATAAGTTGATATTTTTGTGAATCGAGTATTTCAGCAAAACTACTGCAGTAAGAA
- relative integration efficiency (log2) [1]: -3.05 ± 1.3
- relative integration efficiency (log2) [2]: -2.63 ± 2.9

Sequence: AATGTTGTTGATGCAACCATAAAGTGATATTTAATAATTATTTATAATCAGCACAACCATATATTGATATCTCACTTAACCACAAAAACAAAACAACCATAAGTTGATATTTTTGTGAATCGAGTATTTCAGCAAAACTACTGCAGTAAGAA
- relative integration efficiency (log2) [1]: -6.85 ± 0.48
- relative integration efficiency (log2) [2]: < -10

Sequence: AATGTTGTTGATGCAACCATAAGTTGATATTTTATAATTATTTATAATCAGCAACTTAACCACAAAACAACCATATATTGATATCTCACAAAAGTTGGTATTCAACTATAAAATGTGAATCGAGTATTTCAGCAAAACTACTGCAGTAAGAA
- relative integration efficiency (log2) [1]: -2.64 ± 1.1
- relative integration efficiency (log2) [2]: -1.32 ± 0.89

Sequence: AATGTTGTTGATGCAACCATAAAGTGATATTTAATAATTATTTATAATCAGCAACTGCCAACACCCCACCAACGCGCGGTCGCGAGACACCCCACCAACGCCTGGTCGCGGGGGTGTCCGATCTGATTTCAGCAAAACTACTGCAGTAAGAA
- relative integration efficiency (log2) [1]: -6.35 ± 0.99
- relative integration efficiency (log2) [2]: -3.03 ± 0.58

Sequence: AATGTTGTTGATGCAACCATAAAGTGATATTTAATAATTATTTATCAACCATAAAGTGATATTTAACCAACCATATATTGATATCTCACAAAACAACCATAAGTTGATATTTTTGTGAATCGAGTATTTCAGCAAAACTACTGCAGTAAGAA
- relative integration efficiency (log2) [1]: -6.32 ± 2.1
- relative integration efficiency (log2) [2]: -2.57 ± 2

Sequence: AATGTTGTTGATGCAACCATAAAGTGAGCGGGCATAATTATTTATAATCAGCAACTTAACCACAAAACAACCATATATTGAGCGAGAACAAAACAACCATAAGTTGAGCGGGGTGTGAATCGAGTATTTCAGCAAAACTACTGCAGTAAGAA
- relative integration efficiency (log2) [1]: -6.46 ± 1.3
- relative integration efficiency (log2) [2]: -4.11 ± 0.54

Sequence: AATGTTGTTGATGCACCCATAAATTGATATTGCATAATTATTTATAATCAGCAACTTAACCACAAAACACCCATAAATTGATATTGCACAAAAGTTGGTATTCAACTATAAAATGTGAATCGAGTATTTCAGCAAAACTACTGCAGTAAGAA
- relative integration efficiency (log2) [1]: -4.32 ± 0.9
- relative integration efficiency (log2) [2]: -2.41 ± 2

Sequence: AATGTTGTTGATGCAACCATAAAGTGATATTTAATAATTATTTATAATCAGCAACTTAACCACAAAACAACCATATATTGATATCTCACAAAAGTTGGTATTCAACTATAAAATGTGAATCGAGTATTTCAGCAAAACTACTGCAGTAAGAA
- relative integration efficiency (log2) [1]: -2.5 ± 0.79
- relative integration efficiency (log2) [2]: -0.838 ± 0.94

Sequence: AATGTTGTTGATGCAACCATAAAGTGATATTTAATAATTATTTATAATCAGCAACTTAACCACAAAATGTGACAACCATATATTGATATCTCACAAAACAACCATAAGTTGATATTTTATCGAGTATTTCAGCAAAACTACTGCAGTAAGAA
- relative integration efficiency (log2) [1]: -4.95 ± 0.52
- relative integration efficiency (log2) [2]: -4.36 ± 1.1

Sequence: AATGTTGTTGATGCAACCATAAAGTGATATTTAATAACAACCATAAAGTGATATTTAACTTAACCACCAACCATATATTGATATCTCACAAAACAACCATAAGTTGATATTTTTGTGAATCGAGTATTTCAGCAAAACTACTGCAGTAAGAA
- relative integration efficiency (log2) [1]: -4.66 ± 1.1
- relative integration efficiency (log2) [2]: -3.39 ± 0.26

Sequence: AATGTTGTTGATGCACCCATAAATTGATAATTAATAATTATTTATAATCAGCAACTTAACCACAAAACACCCATAAATTGATAATTAACAAAAGTTGGTATTCAACTATAAAATGTGAATCGAGTATTTCAGCAAAACTACTGCAGTAAGAA
- relative integration efficiency (log2) [1]: -2.87 ± 0.73
- relative integration efficiency (log2) [2]: -1.11 ± 1.5

Sequence: AATGTTGTTGATGCAACCATAAAGTGATATTTAATAATTATTTATAATCAGCAACTTAACCACAAAACAACCATATATTGATATCTCCACCCCACCAACGCCTGGTCGCGGGGGTGTCCGATCTGATTTCAGCAAAACTACTGCAGTAAGAA
- relative integration efficiency (log2) [1]: -2.45 ± 0.85
- relative integration efficiency (log2) [2]: -0.685 ± 1.1

Sequence: AATGTTGTTGATGCAACCATAAAGTGATATTTAATAACTTCGTATAAAGTATCCTATACGAAGTTATCAACCATATATTGATATCTCACAAAACAACCATAAGTTGATATTTTTGTGAATCGAGTATTTCAGCAAAACTACTGCAGTAAGAA
- relative integration efficiency (log2) [1]: -2.17 ± 0.99
- relative integration efficiency (log2) [2]: -2.99 ± 2.4

Sequence: AATGTTGTTGATACAACCATAAAATGATAATTACACCCATAAATTGATAATTATCACACCCATAAATTGATATTGCTGTGAATCGAGTATTTCAGCAAAACTACTGCAGTAAGAAAGTTACTTCGTGGTATGGGAGGATCAAGGAGCCAATA
- relative integration efficiency (log2) [1]: -2.21 ± 0.71
- relative integration efficiency (log2) [2]: 3.47 ± 0.79

Sequence: AATGTTGTTGATGCAACCATAAAGTGATATTTAATAATTATTTATAATCAGCAACTTAACCACACAACCATATATTGATATCTCAAAACAAAACAACCATAAGTTGATATTTTTGTGAATCGAGTATTTCAGCAAAACTACTGCAGTAAGAA
- relative integration efficiency (log2) [1]: -2.19 ± 0.45
- relative integration efficiency (log2) [2]: -3.44 ± 2.9

Sequence: AATGTTGTTGATGCAACCATAAAGTGATATTTAATAATTATTTATAATCAGCAACTTAACCACAAACAACCATATATTGATATCTCAACAAAACAACCATAAGTTGATATTTTTGTGAATCGAGTATTTCAGCAAAACTACTGCAGTAAGAA
- relative integration efficiency (log2) [1]: -1.37 ± 0.49
- relative integration efficiency (log2) [2]: -1.17 ± 1.5
